These results are taken from the supplement of paper PMC7877785.

This data set is described as follows: self-splicing fitness, log relative to wild type (ln ratio); higher = more splicing; Tetrahymena group I intron in knt gene, E. coli kanamycin selection, DiMSum; sequences stand for … in CUCUCU…GGAGGGAAAAGUUAUCAGGCAUGCACCUGGUAGCUAGUCUUUAAACCAAUAGAUUGCAUCGGUUUAAAAGGCAAGACCGUCAAAUUGCGGGAAAGGGGUCAACAGCCGUUCAGUACCAAGUCUCAGGGGAAACUUUGAGAUGGCCUUGCAAAGGGUAUGGUAAUAAGCUGACGGACAUGGUCCUAACCACGCAGCCAAGUCCUAAGUCAACAGAUCUUCUGUUGAUAUGGAUGCAGUUCACAGACUAAAUGUCGGUCGGGGAAGAUGUAUUCUUCUCAUAAGAUAUAGUCGGACCUCUCCUUAAUGGGAGCUAGCGGAUGAAGUGAUGCAACACUGGAGCCGCUGGGAACUAAUUUGUAUGCGAAAGUAUAUUGAUUAGUUUUGGAGUACUCGUGGUCG
In short, it runs like this: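 Six replicate transformations of E. coli BL21(DE3) with a pET-22b(+) library were grown overnight at 37°C or 30°C. The library randomised all eight P1ex-region intron nucleotides, the intron lying in the knt kanamycin-resistance gene, and plates were LB agar with or without 25 μg/mL kanamycin plus 100 μg/mL carbenicillin, 50 μM IPTG and 0.2% rhamnose. Pooled colonies were amplicon-sequenced on an Illumina HiSeq 2500, and fitness is the DiMSum error-weighted combination of wild-type-normalised replicate fold changes, kanamycin versus none.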

± gives the uncertainty stated by the source.

With AUCUAGCAAUAUUACGUUCG, the “self-splicing fitness (ln)” value is -1.28 ± 0.091 (30 °C) and -0.393 ± 0.11 (37 °C).

CGUUAGCAAUAUUACGACGU: the “self-splicing fitness (ln)” value runs as follows: (30 °C) -2.74 ± 0.14; (37 °C) -2.05 ± 0.16.

For the sequence CGUCAGCAAUAUUACGUGAU, the “self-splicing fitness (ln)” value is -2.04 ± 0.1 (30 °C) and -1.18 ± 0.13 (37 °C).

For the sequence GAAAAGCAAUAUUACGGACA, the “self-splicing fitness (ln)” value is -0.576 ± 0.056 (30 °C) and -0.269 ± 0.064 (37 °C).

For the sequence GCUGAGCAAUAUUACGUACC, the “self-splicing fitness (ln)” value runs as follows: (30 °C) -1.54 ± 0.13; (37 °C) -0.328 ± 0.18.

With GUACAGCAAUAUUACGUCUU, the “self-splicing fitness (ln)” value is -0.533 ± 0.079 (30 °C) and 0.628 ± 0.092 (37 °C).

As to AACCAGCAAUAUUACGCUAA, the “self-splicing fitness (ln)” value is -1.36 ± 0.068 (30 °C) and -0.61 ± 0.07 (37 °C).

As for GCUCAGCAAUAUUACGGUCA, the “self-splicing fitness (ln)” value was -1.12 ± 0.09 (30 °C) and -0.085 ± 0.082 (37 °C).

Regarding CAAUAGCAAUAUUACGGGGU, the “self-splicing fitness (ln)” value (30 °C) is -4.27 ± 0.39 and the “self-splicing fitness (ln)” value (37 °C) is -2.48 ± 0.23.

In the case of CUAGAGCAAUAUUACGCCCG, the “self-splicing fitness (ln)” value is, setting by setting: (30 °C) -0.259 ± 0.2; (37 °C) 0.187 ± 0.18.

Turning to UGCGAGCAAUAUUACGUGCA, the “self-splicing fitness (ln)” value by setting is: (30 °C) -2.46 ± 0.2; (37 °C) -1.35 ± 0.21.

As to UCUAAGCAAUAUUACGAUGC, the “self-splicing fitness (ln)” value was -3.03 ± 0.18 (30 °C) and -2.28 ± 0.21 (37 °C).

With GUUUAGCAAUAUUACGUGUC, the “self-splicing fitness (ln)” value (30 °C) is -0.806 ± 0.17 and the “self-splicing fitness (ln)” value (37 °C) was -1.76 ± 0.17.

As to CCACAGCAAUAUUACGUCCA, the “self-splicing fitness (ln)” value (30 °C) is -3.23 ± 0.19 and the “self-splicing fitness (ln)” value (37 °C) was -1.59 ± 0.15.

For the sequence UCUUAGCAAUAUUACGACAG, the “self-splicing fitness (ln)” value (30 °C) was -2.9 ± 0.24 and the “self-splicing fitness (ln)” value (37 °C) was -1.56 ± 0.22.

Take AGCUAGCAAUAUUACGGUAA: the “self-splicing fitness (ln)” value by setting is: (30 °C) -2.34 ± 0.26; (37 °C) -1.53 ± 0.26.

On to ACAAAGCAAUAUUACGACGU, for which the “self-splicing fitness (ln)” value (30 °C) was found to be 0.0672 ± 0.047 and the “self-splicing fitness (ln)” value (37 °C) amounted to 0.266 ± 0.06.

Turning to AACCAGCAAUAUUACGUCAC, the “self-splicing fitness (ln)” value was -3.92 ± 0.13 (30 °C) and -2.66 ± 0.13 (37 °C).

On to AAAUAGCAAUAUUACGCCCU, for which the “self-splicing fitness (ln)” value came out at 0.528 ± 0.16 (30 °C) and 0.336 ± 0.21 (37 °C).

Consider ACGUAGCAAUAUUACGAGUU, for which the “self-splicing fitness (ln)” value (30 °C) is -4.04 ± 0.17 and the “self-splicing fitness (ln)” value (37 °C) was -1.3 ± 0.13.

With UUGCAGCAAUAUUACGGCCC, the “self-splicing fitness (ln)” value is -1.83 ± 0.31 (30 °C) and -0.271 ± 0.47 (37 °C).

On to UCCUAGCAAUAUUACGUACG, for which the “self-splicing fitness (ln)” value runs as follows: (30 °C) -3.14 ± 0.18; (37 °C) -1.78 ± 0.2.

Consider GGCUAGCAAUAUUACGUGCU, for which the “self-splicing fitness (ln)” value by setting is: (30 °C) -2.34 ± 0.24; (37 °C) -1.27 ± 0.14.

Consider AUGAAGCAAUAUUACGGUAA, for which the “self-splicing fitness (ln)” value runs as follows: (30 °C) -1.22 ± 0.065; (37 °C) -0.5 ± 0.088.

Turning to AGCCAGCAAUAUUACGCGUA, the “self-splicing fitness (ln)” value (30 °C) was -1.99 ± 0.13 and the “self-splicing fitness (ln)” value (37 °C) was -1.44 ± 0.14.

As for GUCUAGCAAUAUUACGCGCG, the “self-splicing fitness (ln)” value was -1.36 ± 0.15 (30 °C) and -0.687 ± 0.14 (37 °C).

With GCUAAGCAAUAUUACGCUUC, the “self-splicing fitness (ln)” value by setting is: (30 °C) -2.89 ± 0.18; (37 °C) -2.56 ± 0.23.

Take UACGAGCAAUAUUACGCUUG: the “self-splicing fitness (ln)” value (30 °C) was -2.75 ± 0.32.

Consider CGCGAGCAAUAUUACGUAAA, for which the “self-splicing fitness (ln)” value (30 °C) was -3.8 ± 0.19 and the “self-splicing fitness (ln)” value (37 °C) was -2.78 ± 0.15.

With GAUCAGCAAUAUUACGAGUA, the “self-splicing fitness (ln)” value runs as follows: (30 °C) -1.2 ± 0.12; (37 °C) -0.817 ± 0.092.

UUCCAGCAAUAUUACGUGAC: the “self-splicing fitness (ln)” value is -2.56 ± 0.2 (30 °C) and -1.89 ± 0.21 (37 °C).

With UUGUAGCAAUAUUACGAUCG, the “self-splicing fitness (ln)” value is -1.06 ± 0.14 (30 °C) and 0.103 ± 0.23 (37 °C).

Take CGCGAGCAAUAUUACGGCGA: the “self-splicing fitness (ln)” value by setting is: (30 °C) -2.29 ± 0.24; (37 °C) -1.19 ± 0.21.

Regarding ACACAGCAAUAUUACGAGGA, the “self-splicing fitness (ln)” value (30 °C) was -2.42 ± 0.2 and the “self-splicing fitness (ln)” value (37 °C) was -1.66 ± 0.18.

Regarding UUUCAGCAAUAUUACGAGCU, for the setting “37 °C”, the “self-splicing fitness (ln)” value was -1.95 ± 0.5.

Take GAUUAGCAAUAUUACGGAAA: the “self-splicing fitness (ln)” value by setting is: (30 °C) -2.25 ± 0.29; (37 °C) -2.19 ± 0.22.

For AGCAAGCAAUAUUACGUAUG, the “self-splicing fitness (ln)” value runs as follows: (30 °C) -3.61 ± 0.14; (37 °C) -3.29 ± 0.18.
